These results are taken from the supplement of paper PMC10567573.

B1: TMEM175 (parent)
chain: ALLHQAETLQPSVWFGGREHVLMF
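Further: lentivirally expressed fusions sorted by FACS into six bins by GFP to DsRed ratio, PSI derived from sequencing read proportions per bin multiplied by bin number.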

The variants in the data set derive from B1. In words: protein stability index of a GFP-peptide fusion (GPS, HEK-293T) (PSI 1-6); higher = more stable. To be noted: c terminus: a fixed tail appended.
For the variant ALLHQAETLQPSVWFGYREHVLMF [G17Y], the protein stability index came to 1.58.

In the case of ALLHQAETLQPSVWFGAREHVLMF [G17A], the protein stability index stood at 3.03.

With ALLHQAETLQPSVWFGPREHVLMF [G17P], the protein stability index turned out to be 1.05.

Regarding ALLHQAETLQPSVWFGIREHVLMF [G17I], the protein stability index was found to be 2.68.

For ALLHQAKTLQPSVWFGGREHVLMF [E7K], the protein stability index was 3.58.

Turning to ALLHQAGTLQPSVWFGGREHVLMF [E7G], the protein stability index was determined as 3.88.

In the case of ALLHQAWTLQPSVWFGGREHVLMF [E7W], the protein stability index was determined as 3.4.

With ALLHQASTLQPSVWFGGREHVLMF [E7S], the protein stability index turned out to be 2.22.

With ALLHQAETLQPSVWFMGREHVLMF [G16M], the protein stability index is 2.69.

Take ALLHQAETLQPSVWFKGREHVLMF [G16K]: the protein stability index is 2.17.

With ALLHQAETLQPSVWFCGREHVLMF [G16C], the protein stability index was found to be 2.98.

Regarding ALLHQAETEQPSVWFGGREHVLMF [L9E], the protein stability index was 1.16.

Consider ALLHQAETRQPSVWFGGREHVLMF [L9R], for which the protein stability index is 2.19.

ALLHQAETNQPSVWFGGREHVLMF [L9N]: the protein stability index was 1.97.

Regarding ALLHQAETCQPSVWFGGREHVLMF [L9C], the protein stability index worked out at 3.64.

Take ALLHQAETLQPSVWFGGRYHVLMF [E19Y]: the protein stability index is 1.81.

In the case of ALLHQAETLQPSVWFGGRWHVLMF [E19W], the protein stability index amounted to 2.92.

Take ALLHQAETLQPSVWFGGRLHVLMF [E19L]: the protein stability index stood at 2.74.

On to ALLHQAETLQPSVWFGGRNHVLMF [E19N], for which the protein stability index stood at 1.42.

With ALLHQAETLQPSVMFGGREHVLMF [W14M], the protein stability index amounted to 2.08.

For the variant ALLHQAETLQPSVRFGGREHVLMF [W14R], the protein stability index was 2.65.

On to ALLHQAETLQPSVLFGGREHVLMF [W14L], for which the protein stability index is 1.73.

For the variant ALLHQAETLQPSVVFGGREHVLMF [W14V], the protein stability index came out at 1.91.

With ALLHQAETLQPSWWFGGREHVLMF [V13W], the protein stability index came to 2.36.

For ALLHQAETLQPSDWFGGREHVLMF [V13D], the protein stability index worked out at 2.16.

On to ALLHQAETLQPSMWFGGREHVLMF [V13M], for which the protein stability index was determined as 2.46.

As for ALLHQAETLQPSIWFGGREHVLMF [V13I], the protein stability index turned out to be 2.25.

Take ALLHQAETLQPSRWFGGREHVLMF [V13R]: the protein stability index worked out at 2.02.

Turning to ALLHQAETLQPSVWRGGREHVLMF [F15R], the protein stability index stood at 2.02.

For the variant ALLHQAETLQPSVWEGGREHVLMF [F15E], the protein stability index worked out at 1.57.

In the case of ALLHQAETLQPSVWMGGREHVLMF [F15M], the protein stability index was found to be 1.82.

In the case of ILLHQAETLQPSVWFGGREHVLMF [A1I], the protein stability index amounted to 3.59.

In the case of QLLHQAETLQPSVWFGGREHVLMF [A1Q], the protein stability index was 2.96.

For the variant ALLHSAETLQPSVWFGGREHVLMF [Q5S], the protein stability index came out at 2.72.

As for ALLHQAETLQPSVWFGGREHVPMF [L22P], the protein stability index was found to be 2.05.

As to ALLHQAETLQPSVWFGGREHVRMF [L22R], the protein stability index came to 1.93.

As for ALLHQAETLQPSVWFGGREHVVMF [L22V], the protein stability index came out at 3.06.

For the variant ALLHQAETLQPSVWFGGREHVYMF [L22Y], the protein stability index stood at 2.94.

Turning to ALLHQAETLQPSVWFGGREHVEMF [L22E], the protein stability index is 2.09.

As to ALLHQAETLQPSVWFGGREHVKMF [L22K], the protein stability index is 1.94.

As for ALLHQAETLQPSVWFGGGEHVLMF [R18G], the protein stability index was found to be 2.08.

ALLHQAETLQPSVWFGGEEHVLMF [R18E]: the protein stability index was 1.76.

Regarding ALLHQAETLQPSVWFGGTEHVLMF [R18T], the protein stability index was 2.46.

As for ALLHQAETLQPSVWFGGIEHVLMF [R18I], the protein stability index turned out to be 3.13.

For ALLHQAETLQPSVWFGGKEHVLMF [R18K], the protein stability index came out at 3.39.

For ALLHQAETLQPSVWFGGDEHVLMF [R18D], the protein stability index is 1.93.

As for ALLHQAETLQPSVWFGGREGVLMF [H20G], the protein stability index turned out to be 1.74.

Regarding ALLHQAETLQPSVWFGGREDVLMF [H20D], the protein stability index is 1.29.

In the case of ALLHQAETLMPSVWFGGREHVLMF [Q10M], the protein stability index was determined as 1.96.

With ALLHQAETLPPSVWFGGREHVLMF [Q10P], the protein stability index worked out at 2.16.

As to ALLHQAETLWPSVWFGGREHVLMF [Q10W], the protein stability index is 1.51.

Consider ALLHQAETLVPSVWFGGREHVLMF [Q10V], for which the protein stability index turned out to be 1.06.

As to ALLHQAETLHPSVWFGGREHVLMF [Q10H], the protein stability index was determined as 1.99.

For the variant ALLHQAEKLQPSVWFGGREHVLMF [T8K], the protein stability index came out at 3.25.

As to ALLHQAENLQPSVWFGGREHVLMF [T8N], the protein stability index stood at 1.63.

As for ALLHQAEDLQPSVWFGGREHVLMF [T8D], the protein stability index came to 1.83.

As to ALLHQAESLQPSVWFGGREHVLMF [T8S], the protein stability index is 1.65.

For ALLHQAEHLQPSVWFGGREHVLMF [T8H], the protein stability index is 2.95.

For ALLGQAETLQPSVWFGGREHVLMF [H4G], the protein stability index was found to be 1.75.

With ALLEQAETLQPSVWFGGREHVLMF [H4E], the protein stability index came out at 1.56.

With ALLAQAETLQPSVWFGGREHVLMF [H4A], the protein stability index was 1.9.

Take ALLSQAETLQPSVWFGGREHVLMF [H4S]: the protein stability index amounted to 1.99.

Take ALLWQAETLQPSVWFGGREHVLMF [H4W]: the protein stability index is 3.3.

With AHLHQAETLQPSVWFGGREHVLMF [L2H], the protein stability index is 1.48.

Regarding AVLHQAETLQPSVWFGGREHVLMF [L2V], the protein stability index was 1.3.

For the variant AGLHQAETLQPSVWFGGREHVLMF [L2G], the protein stability index was found to be 1.2.

Consider ANLHQAETLQPSVWFGGREHVLMF [L2N], for which the protein stability index amounted to 1.06.

Regarding ALTHQAETLQPSVWFGGREHVLMF [L3T], the protein stability index turned out to be 2.37.

For the variant ALDHQAETLQPSVWFGGREHVLMF [L3D], the protein stability index was determined as 1.87.

Take ALCHQAETLQPSVWFGGREHVLMF [L3C]: the protein stability index came out at 2.26.

ALVHQAETLQPSVWFGGREHVLMF [L3V]: the protein stability index was determined as 1.31.

Regarding ALHHQAETLQPSVWFGGREHVLMF [L3H], the protein stability index stood at 1.57.

As to ALKHQAETLQPSVWFGGREHVLMF [L3K], the protein stability index is 1.71.

With ALLHQAETLQPSVWFGGREHNLMF [V21N], the protein stability index stood at 2.02.

Turning to ALLHQAETLQPSVWFGGREHKLMF [V21K], the protein stability index worked out at 2.1.

Turning to ALLHQAETLQPSVWFGGREHILMF [V21I], the protein stability index was determined as 1.53.

As to ALLHQAETLQPSVWFGGREHELMF [V21E], the protein stability index was 1.53.

With ALLHQAETLQPSVWFGGREHWLMF [V21W], the protein stability index is 1.57.

As for ALLHQAETLQPSVWFGGREHRLMF [V21R], the protein stability index stood at 2.18.

Regarding ALLHQAETLQPSVWFGGREHLLMF [V21L], the protein stability index came to 2.41.

In the case of ALLHQAETLQPSVWFGGREHVLVF [M23V], the protein stability index is 1.27.

As for ALLHQAETLQPSVWFGGREHVLGF [M23G], the protein stability index amounted to 3.51.

Take ALLHQAETLQPSVWFGGREHVLRF [M23R]: the protein stability index worked out at 1.03.

Take ALLHQAETLQPSVWFGGREHVLLF [M23L]: the protein stability index is 3.66.

In the case of ALLHQAETLQPSVWFGGREHVLME [F24E], the protein stability index was 2.15.

Turning to ALLHQAETLQPSVWFGGREHVLMP [F24P], the protein stability index is 1.54.

In the case of ALLHQAETLQPSVWFGGREHVLMG [F24G], the protein stability index was determined as 1.47.

In the case of ALLHQAETLQPSVWFGGREHVLMH [F24H], the protein stability index was determined as 2.15.

ALLHQAETLQASVWFGGREHVLMF [P11A]: the protein stability index was 1.78.

With ALLHQAETLQQSVWFGGREHVLMF [P11Q], the protein stability index was 1.38.

In the case of ALLHQAETLQLSVWFGGREHVLMF [P11L], the protein stability index is 1.82.

ALLHQAETLQPQVWFGGREHVLMF [S12Q]: the protein stability index stood at 1.82.

As for ALLHQAETLQPIVWFGGREHVLMF [S12I], the protein stability index was determined as 3.85.

With ALLHQAETLQPEVWFGGREHVLMF [S12E], the protein stability index amounted to 2.31.
